This note sets out measurements from the supplement of paper PMC7877785.

± gives the uncertainty stated by the source.

The series can be described thus: self-splicing fitness, log relative to wild type (ln ratio); higher = more splicing; Tetrahymena group I intron in knt gene, E. coli kanamycin selection, DiMSum; sequences stand for … in CUCUCU…GGAGGGAAAAGUUAUCAGGCAUGCACCUGGUAGCUAGUCUUUAAACCAAUAGAUUGCAUCGGUUUAAAAGGCAAGACCGUCAAAUUGCGGGAAAGGGGUCAACAGCCGUUCAGUACCAAGUCUCAGGGGAAACUUUGAGAUGGCCUUGCAAAGGGUAUGGUAAUAAGCUGACGGACAUGGUCCUAACCACGCAGCCAAGUCCUAAGUCAACAGAUCUUCUGUUGAUAUGGAUGCAGUUCACAGACUAAAUGUCGGUCGGGGAAGAUGUAUUCUUCUCAUAAGAUAUAGUCGGACCUCUCCUUAAUGGGAGCUAGCGGAUGAAGUGAUGCAACACUGGAGCCGCUGGGAACUAAUUUGUAUGCGAAAGUAUAUUGAUUAGUUUUGGAGUACUCGUGGUCG
An outline of the steps: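 Six replicate transformations of E. coli BL21(DE3) with a pET-22b(+) library were grown overnight at 37°C or 30°C. The library randomised all eight P1ex-region intron nucleotides, the intron lying in the knt kanamycin-resistance gene, and plates were LB agar with or without 25 μg/mL kanamycin plus 100 μg/mL carbenicillin, 50 μM IPTG and 0.2% rhamnose. Pooled colonies were amplicon-sequenced on an Illumina HiSeq 2500, and fitness is the DiMSum error-weighted combination of wild-type-normalised replicate fold changes, kanamycin versus none.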

As to AGCGAGCAAUAUUACGGGUA, the “self-splicing fitness (ln)” value (30 °C) was -2.6 ± 0.21 and the “self-splicing fitness (ln)” value (37 °C) is -0.993 ± 0.18.

With AGCGAGCAAUAUUACGGUAG, the “self-splicing fitness (ln)” value (37 °C) was -1.73 ± 0.22.

With AGCGAGCAAUAUUACGUAGC, the “self-splicing fitness (ln)” value (30 °C) was -2.83 ± 0.26 and the “self-splicing fitness (ln)” value (37 °C) was -0.813 ± 0.27.

As to AGCGAGCAAUAUUACGUAGG, the “self-splicing fitness (ln)” value is -3.4 ± 0.35 (30 °C) and -2.17 ± 0.22 (37 °C).

In the case of AGCGAGCAAUAUUACGUAUA, the “self-splicing fitness (ln)” value (30 °C) was -3.86 ± 0.37 and the “self-splicing fitness (ln)” value (37 °C) is -2.18 ± 0.29.

For the sequence AGCGAGCAAUAUUACGUCAG, the “self-splicing fitness (ln)” value reads like this: (30 °C) -4.3 ± 0.36; (37 °C) -2.58 ± 0.29.

For AGCGAGCAAUAUUACGUCCA, the “self-splicing fitness (ln)” value runs as follows: (30 °C) -2.59 ± 0.15; (37 °C) -1.1 ± 0.15.

As to AGCGAGCAAUAUUACGUCGU, the “self-splicing fitness (ln)” value was -3.82 ± 0.43 (30 °C) and -2.18 ± 0.36 (37 °C).

In the case of AGCGAGCAAUAUUACGUCUA, the “self-splicing fitness (ln)” value (30 °C) was -1.92 ± 0.13 and the “self-splicing fitness (ln)” value (37 °C) was -2 ± 0.11.

As for AGCGAGCAAUAUUACGUCUU, the “self-splicing fitness (ln)” value reads like this: (30 °C) -2.73 ± 0.16; (37 °C) -2.08 ± 0.18.

For the sequence AGCGAGCAAUAUUACGUUUC, the “self-splicing fitness (ln)” value reads like this: (30 °C) -4.07 ± 0.21; (37 °C) -2.77 ± 0.18.

Turning to AGCUAGCAAUAUUACGAAAC, the “self-splicing fitness (ln)” value (37 °C) was -1.95 ± 0.43.

AGCUAGCAAUAUUACGAAAU: the “self-splicing fitness (ln)” value was -2.4 ± 0.15 (30 °C) and -1.83 ± 0.2 (37 °C).

Consider AGCUAGCAAUAUUACGACUU, for which the “self-splicing fitness (ln)” value was -0.59 ± 0.11 (30 °C) and -0.0618 ± 0.12 (37 °C).

For the sequence AGCUAGCAAUAUUACGAUCG, the “self-splicing fitness (ln)” value reads like this: (30 °C) -1.81 ± 0.16; (37 °C) -0.102 ± 0.18.

In the case of AGCUAGCAAUAUUACGAUGG, the “self-splicing fitness (ln)” value is -3.87 ± 0.27 (30 °C) and -2.05 ± 0.28 (37 °C).

Take AGCUAGCAAUAUUACGCACG: the “self-splicing fitness (ln)” value by setting is: (30 °C) -0.605 ± 0.16; (37 °C) -0.0907 ± 0.18.

As to AGCUAGCAAUAUUACGCAUA, the “self-splicing fitness (ln)” value runs as follows: (30 °C) -2.4 ± 0.12; (37 °C) -1.22 ± 0.14.

For the sequence AGCUAGCAAUAUUACGCAUU, the “self-splicing fitness (ln)” value was -3 ± 0.19 (30 °C) and -1.48 ± 0.14 (37 °C).

As for AGCUAGCAAUAUUACGCCCG, the “self-splicing fitness (ln)” value (37 °C) is -0.486 ± 0.32.

Turning to AGCUAGCAAUAUUACGCGUA, the “self-splicing fitness (ln)” value (30 °C) is -3.08 ± 0.26 and the “self-splicing fitness (ln)” value (37 °C) was -0.709 ± 0.18.

On to AGCUAGCAAUAUUACGGGAA, for which the “self-splicing fitness (ln)” value reads like this: (30 °C) -3.13 ± 0.28; (37 °C) -1.67 ± 0.22.

Regarding AGCUAGCAAUAUUACGGGCG, the “self-splicing fitness (ln)” value by setting is: (30 °C) -0.507 ± 0.098; (37 °C) -0.799 ± 0.15.

AGCUAGCAAUAUUACGGUGA: the “self-splicing fitness (ln)” value reads like this: (30 °C) -1.81 ± 0.2; (37 °C) -0.51 ± 0.2.

On to AGCUAGCAAUAUUACGGUGU, for which the “self-splicing fitness (ln)” value was -2.56 ± 0.11 (30 °C) and -1.22 ± 0.11 (37 °C).

On to AGCUAGCAAUAUUACGUAUA, for which the “self-splicing fitness (ln)” value by setting is: (30 °C) -2.28 ± 0.15; (37 °C) -2.12 ± 0.23.

Turning to AGCUAGCAAUAUUACGUCCA, the “self-splicing fitness (ln)” value by setting is: (30 °C) -1.52 ± 0.12; (37 °C) -0.378 ± 0.11.

Consider AGCUAGCAAUAUUACGUCUG, for which the “self-splicing fitness (ln)” value runs as follows: (30 °C) -1.88 ± 0.097; (37 °C) -1.56 ± 0.13.

Regarding AGCUAGCAAUAUUACGUGGC, the “self-splicing fitness (ln)” value (37 °C) was -2.27 ± 0.26.

AGCUAGCAAUAUUACGUUUG: the “self-splicing fitness (ln)” value is, setting by setting: (30 °C) -4.09 ± 0.24; (37 °C) -0.747 ± 0.15.

Take AGGAAGCAAUAUUACGACAA: the “self-splicing fitness (ln)” value (30 °C) is -1.66 ± 0.12 and the “self-splicing fitness (ln)” value (37 °C) is -1.49 ± 0.14.

In the case of AGGAAGCAAUAUUACGACGU, the “self-splicing fitness (ln)” value (30 °C) turned out to be 0.0515 ± 0.072 and the “self-splicing fitness (ln)” value (37 °C) came out at 0.213 ± 0.076.

As to AGGAAGCAAUAUUACGAGUU, the “self-splicing fitness (ln)” value (30 °C) is -3.11 ± 0.12 and the “self-splicing fitness (ln)” value (37 °C) was -1.03 ± 0.11.

Regarding AGGAAGCAAUAUUACGAUAG, the “self-splicing fitness (ln)” value (30 °C) was -3.02 ± 0.28 and the “self-splicing fitness (ln)” value (37 °C) is -1.55 ± 0.38.

Take AGGAAGCAAUAUUACGCAAG: the “self-splicing fitness (ln)” value reads like this: (30 °C) -3.11 ± 0.22; (37 °C) -1.45 ± 0.13.

As for AGGAAGCAAUAUUACGCAAU, the “self-splicing fitness (ln)” value is -2.58 ± 0.25 (30 °C) and -2 ± 0.21 (37 °C).

With AGGAAGCAAUAUUACGCAGC, the “self-splicing fitness (ln)” value is, setting by setting: (30 °C) -3.55 ± 0.33; (37 °C) -1.47 ± 0.31.

As to AGGAAGCAAUAUUACGCAGG, the “self-splicing fitness (ln)” value is -3.16 ± 0.25 (30 °C) and -2.21 ± 0.3 (37 °C).

AGGAAGCAAUAUUACGCCGG: the “self-splicing fitness (ln)” value is, setting by setting: (30 °C) -0.87 ± 0.17; (37 °C) -0.612 ± 0.23.
